Experiments:
[1] = biological target: T1, human DR4 (Death Receptor 4), cell surface expressed on human tumor cell lines (human, UniProt O00220 24-468); assay: flow cytometry, PANC-1 cells, n = 3
T1 construct: also called TNFRSF10A; TRAIL-R1
T1 sequence: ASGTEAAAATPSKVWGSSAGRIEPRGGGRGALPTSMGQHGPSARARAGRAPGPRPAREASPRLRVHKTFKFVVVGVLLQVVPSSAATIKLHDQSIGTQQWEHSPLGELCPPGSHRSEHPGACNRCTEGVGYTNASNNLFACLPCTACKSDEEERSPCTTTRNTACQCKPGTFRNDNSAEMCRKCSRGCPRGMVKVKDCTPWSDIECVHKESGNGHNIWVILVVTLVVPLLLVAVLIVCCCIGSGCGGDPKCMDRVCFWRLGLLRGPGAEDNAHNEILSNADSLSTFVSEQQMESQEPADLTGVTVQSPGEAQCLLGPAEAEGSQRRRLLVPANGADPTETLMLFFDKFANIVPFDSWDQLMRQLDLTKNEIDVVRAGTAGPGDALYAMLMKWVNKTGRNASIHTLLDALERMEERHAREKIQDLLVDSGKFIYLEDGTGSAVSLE

[2] = biological target: T2, human FAPα (Fibroblast activation protein alpha), cell surface expressed (human, UniProt Q12884 1-760); assay: flow cytometry, human lung fibroblasts, n = 1
T2 construct: Endogenous on human lung fibroblasts and CAFs
T2 sequence: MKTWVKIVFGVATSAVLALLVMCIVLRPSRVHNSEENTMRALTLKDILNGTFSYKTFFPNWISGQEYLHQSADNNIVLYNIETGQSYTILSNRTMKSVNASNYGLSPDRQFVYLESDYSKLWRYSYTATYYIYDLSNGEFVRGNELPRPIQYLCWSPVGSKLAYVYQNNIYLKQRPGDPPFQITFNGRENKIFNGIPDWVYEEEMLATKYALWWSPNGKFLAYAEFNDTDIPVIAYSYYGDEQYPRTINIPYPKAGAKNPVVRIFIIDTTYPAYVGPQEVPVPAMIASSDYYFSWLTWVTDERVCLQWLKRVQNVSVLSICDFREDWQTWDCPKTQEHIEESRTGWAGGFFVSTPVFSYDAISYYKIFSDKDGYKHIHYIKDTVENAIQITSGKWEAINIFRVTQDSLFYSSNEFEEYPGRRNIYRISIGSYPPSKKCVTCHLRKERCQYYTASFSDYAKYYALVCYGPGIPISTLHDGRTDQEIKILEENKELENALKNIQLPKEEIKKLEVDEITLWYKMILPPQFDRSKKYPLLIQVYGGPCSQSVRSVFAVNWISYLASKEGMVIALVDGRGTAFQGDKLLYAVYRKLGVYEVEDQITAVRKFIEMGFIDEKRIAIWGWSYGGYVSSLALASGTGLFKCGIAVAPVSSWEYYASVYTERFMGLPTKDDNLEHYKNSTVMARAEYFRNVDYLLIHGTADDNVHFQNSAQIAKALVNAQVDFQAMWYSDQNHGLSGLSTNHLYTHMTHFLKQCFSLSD
Procedure: Binding of bispecific or monoclonal antibodies carrying the anti-FAPα arm derived from IgG1-FAPα-FERL (BisG1-FAPα-FERL/DR4-FERR, BisG1-FAPα-FERL/b12-FERR, and IgG1-FAPα-FERL) to cell surface expressed human FAPα was analyzed by flow cytometry using human lung fibroblasts and CAFs, which endogenously express FAPα. BisG1-b12-FERL/b12-FERR was used as negative control.
Human lung fibroblasts and CAFs (50,000 cells/well) were seeded in 96-Well round bottom plates (Greiner Bio-one, Cat #650101). Antibody dilutions were prepared using fluorescence-activated cell sorting (FACS) buffer, consisting of phosphate buffer saline (PBS, Lonza, Cat #BE17-517Q)+1% Bovine Serum Albumin (BSA, Roche, Cat #10735086001)+0.02% Sodium Azide (Bio-World, Cat #41920044-3). Plates were centrifuged, supernatant was removed, cells were resuspended in 50 μL of human Fc Block (BD, Cat #564220, diluted 1:100 in FACS buffer) and 50 μL of viability stain TO-PRO-3 Iodide (Thermo Fisher, Cat #T3605, diluted 1: 25,000 in FACS buffer), and incubated for 15 min at 4° C. Plates were washed three times with FACS buffer. Plates were centrifuged, supernatant was removed, cells were resuspended in 50 μL of antibody dilutions (concentration range 90-0.0005 μg/mL, three-fold dilution steps using FACS buffer) of BisG1-FAPα-FERL/DR4-FERR, BisG1-FAPα-FERL/b12-FERR, BisG1-b12-FERL/b12-FERR (top six concentrations only for CAFs culture) or IgG1-FAPα-FERL (top four concentrations only for CAFs culture) and incubated for 30 min at 4° C. Cells were washed three times with FACS buffer and resuspended in 50 μL of Fluorescein isothiocyanate (FITC)-labeled polyclonal antibody goat anti-mouse IgG1 (Jackson Immuno Research, Cat #109-096-097, diluted 1:100 in FACS buffer). […] Antibody binding to viable cells (TO-PRO-3 negative) was analyzed by flow cytometry on a FACSCelesta™ (BD biosciences) and data were processed using FlowJo_v10.8.1 (FlowJo LLC). Geomean fluorescence intensity, gMFI, was determined and visualized using GraphPad Prism.

EC50 [2]: 0.046 µg/mL
B1: BisG1-FAPα-FERL/DR4-FERR (bispecific antibody, human IgG1, kappa, lambda)
heavy 1: EVQLLESGGGLVQPGGSPRLSCEASGFTFSSYALSWVRQAPGKGLEWVSAISGSGGGRYYADSVKGRFTISRDNSKNTLFLQMNSLRAEDTAVYYCAKEGYSSSGTYWDHWGQGTLVTVSSASTKGPSVFPLAPSSKSTSGGTAALGCLVKDYFPEPVTVSWNSGALTSGVHTFPAVLQSSGLYSLSSVVTVPSSSLGTQTYICNVNHKPSNTKVDKRVEPKSCDKTHTCPPCPAPEFERGPSVFLFPPKPKDTLMISRTPEVTCVVVDVSHEDPEVKFNWYVDGVEVHNAKTKPREEQYNSTYRVVSVLTVLHQDWLNGKEYKCKVSNKALPAPIEKTISKAKGQPREPQVYTLPPSREEMTKNQVSLTCLVKGFYPSDIAVEWESNGQPENNYKTTPPVLDSDGSFLLYSKLTVDKSRWQQGNVFSCSVMHEALHNHYTQKSLSLSPG
light 1: AIQMTQSPSSVSASVGDRVTITCRASQGVSSWLAWYQQKPGRAPKLLIYVASTLQSGVPSRFSGSGSGTDFTLTINSLQPEDFATYYCQQANSFPPTFGQGTRLEMKRTVAAPSVFIFPPSDEQLKSGTASVVCLLNNFYPREAKVQWKVDNALQSGNSQESVTEQDSKDSTYSLSSTLTLSKADYEKHKVYACEVTHQGLSSPVTKSFNRGEC
heavy 2: QVQLQESGPGLVKPSGTLSLTCAVSGGSISSYSWWSWIRQPPGKGLEWIGELYHSGSTNYNPSLKSRVTISVDKSKNQFSLKLRSVTAADTAVYYCVRGVATIDYWGQGTLVTVSSASTKGPSVFPLAPSSKSTSGGTAALGCLVKDYFPEPVTVSWNSGALTSGVHTFPAVLQSSGLYSLSSVVTVPSSSLGTQTYICNVNHKPSNTKVDKRVEPKSCDKTHTCPPCPAPEFERGPSVFLFPPKPKDTLMISRTPEVTCVVVDVSHEDPEVKFNWYVDGVEVHNAKTKPREEQYNSTYRVVSVLTVLHQDWLNGKEYKCKVSNKALPAPIEKTISKAKGQPREPQVYTLPPSREEMTKNQVSLTCLVKGFYPSDIAVEWESNGQPENNYKTTPPVLDSDGSFFLYSRLTVDKSRWQQGNVFSCSVMHEALHNHYTQKSLSLSPG
light 2: QSALTQPPSASGSPGQSVTISCTGTSSDVGGYNFVSWYQQDPGKAPKLLIYEVTKRPSGVPDRFSGSKSGNTASLTVSGLQAEDEADYYCSSYAGSNNVMFGGGTKLTVLGQPKAAPSVTLFPPSSEELQANKATLVCLISDFYPGAVTVAWKADSSPVKAGVETTTPSKQSNNKYAASSYLSLTPEQWKSHRSYSCQVTHEGSTVEKTVAPTECS
notes: Human IgG1 bispecific made by controlled Fab-arm exchange of IgG1-FAPα-FERL and IgG1-DR4-FERR; monovalent for FAPα and for DR4; also called GEN1057
EC50 [1]: 1.4 µg/mL

— patent publication US20250002610A1 (Genmab, published 2025)
